Target: Omicron RBD (Severe acute respiratory syndrome coronavirus 2, UniProt P0DTC2, E484A/G339D/G446S/G496S/K417N/N440K/N501Y/Q493R/Q498R/S371L/S373P/S375F/S477N/T478K/Y505H)

## R7-02 (LGKGDFRK)
  RBD binding to highly mutated variant (Omicron) versus wild type: most strongly recognized

— patent publication US20250376490A1, “C[…]-DERIVED PEPTIDE-NUCLEIC ACID HYBRID MOLECULE FOR TREATING INFECTION CAUSED BY MUTATED CORONAVIRUS” (priority 2022, published 2025)
